The Immune Epitope Database (IEDB)
pIC50: −log10 of the molar value.

molecular target: HLA-A*02:01; assay: IEDB peptide-MHC binding, purified MHC/competitive/radioactivity; ≥ and ≤ were set here for values at or beyond the usual limits of such assays; conditions: source organism: Homo sapiens

pIC50 | Sequence
7.22 | TLGTVILLV

same assay, conditions: source organism: Human gammaherpesvirus 8

Sequence | pIC50
LLGTWMFSV | 8.52
SVDFYQFRV | 6.51
GALLPGNLV | 6.30
FLYVVCSLA | 8.40
ITATFTAPL | 7.42
SLVTGFINFI | 6.62
KLLGTWMFSV | 8.52
RIFYNILEI | 7.21
RLSNRICFWA | 6.42
ALIGTMCGI | 7.48
RLGAIPPLV | 6.48
RLYQASAVM | 6.56
QLASILGCVD | 6.51
ALIGTMCGIL | 6.38
FKNSSNLFT | 7.19
HLDFWHHEV | 7.70
FVAVHPVDV | 7.72
SVSDFDLRI | 6.38
ATLGTVILL | 6.75
FIALNLSFI | 7.11
